According to the supplement of paper PMC5998384:

What was measured:
HeLa Kyoto [1] = assay: solubility in G1/S (NP-40 vs SDS abundance) (log2 ratio); higher = more soluble; conditions: cell cycle stage: G1/S
HeLa Kyoto [2] = assay: melting temperature (median over replicates), in situ; higher = more thermally stable
HeLa Kyoto [3] = assay: solubility change mitosis vs G1/S (difference of NP-40 vs SDS log2 ratios) (log2 ratio difference); higher = more soluble in mitosis
HeLa Kyoto [4] = assay: thermal stability score vs G1/S (z-score of summed log2 fold changes over temperatures); higher = more thermally stable than in G1/S
[5] = cell cycle stage: early G1 (4.5 h after nocodazole release)
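Wherever melting temperature (median over replicates), in situ is given: HeLa Kyoto cells synchronized by double thymidine or nocodazole block, proteins quantified by TMT10plex mass spectrometry, three independent biological replicates.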
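Wherever solubility change mitosis vs G1/S (difference of NP-40 vs SDS log2 ratios) is given: synchronized HeLa Kyoto cells (double thymidine block for G1/S, nocodazole release for mitosis), protein amounts in NP-40 versus SDS lysates quantified by mass spectrometry, three biological replicates.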
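Wherever solubility in G1/S (NP-40 vs SDS abundance) is given: HeLa Kyoto cells arrested at G1/S by double thymidine block, proteins quantified by TMT10plex mass spectrometry in mild NP-40 versus SDS extracts, three biological replicates.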
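Wherever thermal stability score vs G1/S (z-score of summed log2 fold changes over temperatures) is given: synchronized HeLa Kyoto cells, proteins quantified by TMT10plex mass spectrometry, three biological replicates, mitosis taken 0.5 h after nocodazole release, G1/S directly after double thymidine block.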

Sequence | solubility in G1/S (log2) (HeLa Kyoto [1]) | melting temperature (HeLa Kyoto [2]; cell cycle stage: G1/S) [°C] | melting temperature (HeLa Kyoto [2]; cell cycle stage: mitosis) [°C] | solubility change mitosis (log2) (HeLa Kyoto [3]) | thermal stability score (HeLa Kyoto [4]; [5]) | thermal stability score (HeLa Kyoto [4]; cell cycle stage: mitosis)
MAAAAECDVVMAATEPELLDDQEAKREAETFKEQGNAYYAKKDYNEAYNYYTKAIDMCPKNASYYGNRAATLMMLGRFREALGDAQQSVRLDDSFVRGHLREGKCHLSLGNAMAACRSFQRALELDHKNAQAQQEFKNANAVMEYEKIAETDFEKRDFRKVVFCMDRALEFAPACHRFKILKAECLAMLGRYPEAQSVASDILRMDSTNADALYVRGLCLYYEDCIEKAVQFFVQALRMAPDHEKACIACRNAKALKAKKEDGNKAFKEGNYKLAYELYTEALGIDPNNIKTNAKLYCNRGTVNSKLRKLDDAIEDCTNAVKLDDTYIKAYLRRAQCYMDTEQYEEAVRDYEKVYQTEKTKEHKQLLKNAQLELKKSKRKDYYKILGVDKNASEDEIKKAYRKRALMHHPDRHSGASAEVQKEEEKKFKEVGEAFTILSDPKKKTRYDSGQDLDEEGMNMGDFDPNNIFKAFFGGPGGFSFEASGPGNFFFQFG [DNAJC7] | 0.556 | 48.8 | 49.3 | -0.0134 | 0.609 | 1.11
MAAAAGAAAAAAAEGEAPAEMGALLLEKETRGATERVHGSLGDTPRSEETLPKATPDSLEPAGPSSPASVTVTVGDEGADTPVGATPLIGDESENLEGDGDLRGGRILLGHATKSFPSSPSKGGSCPSRAKMSMTGAGKSPPSVQSLAMRLLSMPGAQGAAAAGSEPPPATTSPEGQPKVHRARKTMSKPGNGQPPVPEKRPPEIQHFRMSDDVHSLGKVTSDLAKRRKLNSGGGLSEELGSARRSGEVTLTKGDPGSLEEWETVVGDDFSLYYDSYSVDERVDSDSKSEVEALTEQLSEEEEEEEEEEEEEEEEEEEEEEEEDEESGNQSDRSGSSGRRKAKKKWRKDSPWVKPSRKRRKREPPRAKEPRGVNGVGSSGPSEYMEVPLGSLELPSEGTLSPNHAGVSNDTSSLETERGFEELPLCSCRMEAPKIDRISERAGHKCMATESVDGELSGCNAAILKRETMRPSSRVALMVLCETHRARMVKHHCCPGCGYFCTAGTFLECHPDFRVAHRFHKACVSQLNGMVFCPHCGEDASEAQEVTIPRGDGVTPPAGTAAPAPPPLSQDVPGRADTSQPSARMRGHGEPRRPPCDPLADTIDSSGPSLTLPNGGCLSAVGLPLGPGREALEKALVIQESERRKKLRFHPRQLYLSVKQGELQKVILMLLDNLDPNFQSDQQSKRTPLHAAAQKGSVEICHVLLQAGANINAVDKQQRTPLMEAVVNNHLEVARYMVQRGGCVYSKEEDGSTCLHHAAKIGNLEMVSLLLSTGQVDVNAQDSGGWTPIIWAAEHKHIEVIRMLLTRGADVTLTDNEENICLHWASFTGSAAIAEVLLNARCDLHAVNYHGDTPLHIAARESYHDCVLLFLSRGANPELRNKEGDTAWDLTPERSDVWFALQLNRKLRLGVGNRAIRTEKIICRDVARGYENVPIPCVNGVDGEPCPEDYKYISENCETSTMNIDRNITHLQHCTCVDDCSSSNCLCGQLSIRCWYDKDGRLLQEFNKIEPPLIFECNQACSCWRNCKNRVVQSGIKVRLQLYRTAKMGWGVRALQTIPQGTFICEYVGELISDAEADVREDDSYLFDLDNKDGEVYCIDARYYGNISRFINHLCDPNIIPVRVFMLHQDLRFPRIAFFSSRDIRTGEELGFDYGDRFWDIKSKYFTCQCGSEKCKHSAEAIALEQSRLARLDPHPELLPELGSLPPVNT [EHMT2] | -0.563 | 50.1 | 49.9 | 0.189 | 1.11 | 1.87
MAAAAGDADDEPRSGHSSSEGECAVAPEPLTDAEGLFSFADFGSALGGGGAGLSGRASGGAQSPLRYLHVLWQQDAEPRDELRCKIPAGRLRRAARPHRRLGPTGKEVHALKRLRDSANANDVETVQQLLEDGADPCAADDKGRTALHFASCNGNDQIVQLLLDHGADPNQRDGLGNTPLHLAACTNHVPVITTLLRGGARVDALDRAGRTPLHLAKSKLNILQEGHAQCLEAVRLEVKQIIHMLREYLERLGQHEQRERLDDLCTRLQMTSTKEQVDEVTDLLASFTSLSLQMQSMEKR [ANKRD54] | 0.0925 | 51 |  | -0.169 | 0.324 | 3.1
MAAAAGSCARVAAWGGKLRRGLAVSRQAVRSPGPLAAAVAGAALAGAGAAWHHSRVSVAARDGSFTVSAQKNVEHGIIYIGKPSLRKQRFMQFSSLEHEGEYYMTPRDFLFSVMFEQMERKTSVKKLTKKDIEDTLSGIQTAGCGSTFFRDLGDKGLISYTEYLFLLTILTKPHSGFHVAFKMLDTDGNEMIEKREFFKLQKIISKQDDLMTVKTNETGYQEAIVKEPEINTTLQMRFFGKRGQRKLHYKEFRRFMENLQTEIQEMEFLQFSKGLSFMRKEDFAEWLLFFTNTENKDIYWKNVREKLSAGESISLDEFKSFCHFTTHLEDFAIAMQMFSLAHRPVRLAEFKRAVKVATGQELSNNILDTVFKIFDLDGDECLSHEEFLGVLKNRMHRGLWVPQHQSIQEYWKCVKKESIKGVKEVWKQAGKGLF [MICU2] | -0.297 | 52.1 | 52.1 | -0.111 | 0.279 | 0.383
MAAAALGQIWARKLLSVPWLLCGPRRYASSSFKAADLQLEMTQKPHKKPGPGEPLVFGKTFTDHMLMVEWNDKGWGQPRIQPFQNLTLHPASSSLHYSLQLFEGMKAFKGKDQQVRLFRPWLNMDRMLRSAMRLCLPSFDKLELLECIRRLIEVDKDWVPDAAGTSLYVRPVLIGNEPSLGVSQPTRALLFVILCPVGAYFPGGSVTPVSLLADPAFIRAWVGGVGNYKLGGNYGPTVLVQQEALKRGCEQVLWLYGPDHQLTEVGTMNIFVYWTHEDGVLELVTPPLNGVILPGVVRQSLLDMAQTWGEFRVVERTITMKQLLRALEEGRVREVFGSGTACQVCPVHRILYKDRNLHIPTMENGPELILRFQKELKEIQYGIRAHEWMFPV [BCAT2] | -0.077 | 55.4 | 55.1 | -0.156 | -0.771 | -0.0554
MAAAALRRFWSRRRAEAGDAVVAKPGVWARLGSWARALLRDYAEACRDASAEARARPGRAAVYVGLLGGAAACFTLAPSEGAFEEALLEASGTLLLLAPATRNRESEAFVQRLLWLRGRGRLRYVNLGLCSLVYEAPFDAQASLYQARCRYLQPRWTDFPGRVLDVGFVGRWWVLGAWMRDCDINDDEFLHLPAHLRVVGPQQLHSETNERLFDEKYKPVVLTDDQVDQALWEEQVLQKEKKDRLALSQAHSLVQAEAPR [C19ORF52] | -0.131 | 53.5 | 53.8 | -0.13 | 0.683 | 0.243
MAAAAQLSLTQLSSGNPVYEKYYRQVDTGNTGRVLASDAAAFLKKSGLPDLILGKIWDLADTDGKGILNKQEFFVALRLVACAQNGLEVSLSSLNLAVPPPRFHDTSSPLLISGTSAAELPWAVKPEDKAKYDAIFDSLSPVNGFLSGDKVKPVLLNSKLPVDILGRVWELSDIDHDGMLDRDEFAVAMFLVYCALEKEPVPMSLPPALVPPSKRKTWVVSPAEKAKYDEIFLKTDKDMDGFVSGLEVREIFLKTGLPSTLLAHIWSLCDTKDCGKLSKDQFALAFHLISQKLIKGIDPPHVLTPEMIPPSDRASLQKNIIGSSPVADFSAIKELDTLNNEIVDLQREKNNVEQDLKEKEDTIKQRTSEVQDLQDEVQRENTNLQKLQAQKQQVQELLDELDEQKAQLEEQLKEVRKKCAEEAQLISSLKAELTSQESQISTYEEELAKAREELSRLQQETAELEESVESGKAQLEPLQQHLQDSQQEISSMQMKLMEMKDLENHNSQLNWCSSPHSILVNGATDYCSLSTSSSETANLNEHVEGQSNLESEPIHQESPARSSPELLPSGVTDENEVTTAVTEKVCSELDNNRHSKEEDPFNVDSSSLTGPVADTNLDFFQSDPFVGSDPFKDDPFGKIDPFGGDPFKGSDPFASDCFFRQSTDPFATSSTDPFSAANNSSITSVETLKHNDPFAPGGTVVAASDSATDPFASVFGNESFGGGFADFSTLSKVNNEDPFRSATSSSVSNVVITKNVFEETSVKSEDEPPALPPKIGTPTRPCPLPPGKRSINKLDSPDPFKLNDPFQPFPGNDSPKEKDPEIFCDPFTSATTTTNKEADPSNFANFSAYPSEEDMIEWAKRESEREEEQRLARLNQQEQEDLELAIALSKSEISEA [EPS15] | 0.2 | 51 | 51.5 | -0.117 | 0.399 | 1.19
MAAAAVSESWPELELAERERRRELLLTGPGLEERVRAAGGQLPPRLFTLPLLHYLEVSGCGSLRAPGPGLAQGLPQLHSLVLRRNALGPGLSPELGPLPALRVLDLSGNALEALPPGQGLGPAEPPGLPQLQSLNLSGNRLRELPADLARCAPRLQSLNLTGNCLDSFPAELFRPGALPLLSELAAADNCLRELSPDIAHLASLKTLDLSNNQLSEIPAELADCPKLKEINFRGNKLRDKRLEKMVSGCQTRSILEYLRVGGRGGGKGKGRAEGSEKEESRRKRRERKQRREGGDGEEQDVGDAGRLLLRVLHVSENPVPLTVRVSPEVRDVRPYIVGAVVRGMDLQPGNALKRFLTSQTKLHEDLCEKRTAATLATHELRAVKGPLLYCARPPQDLKIVPLGRKEAKAKELVRQLQLEAEEQRKQKKRQSVSGLHRYLHLLDGNENYPCLVDADGDVISFPPITNSEKTKVKKTTSDLFLEVTSATSLQICKDVMDALILKMAEMKKYTLENKEEGSLSDTEADAVSGQLPDPTTNPSAGKDGPSLLVVEQVRVVDLEGSLKVVYPSKADLATAPPHVTVVR [LRRC47] | 0.238 | 53 | 52.2 | 0.0172 | -0.334 | -1.47
MAAAAWLQVLPVILLLLGAHPSPLSFFSAGPATVAAADRSKWHIPIPSGKNYFSFGKILFRNTTIFLKFDGEPCDLSLNITWYLKSADCYNEIYNFKAEEVELYLEKLKEKRGLSGKYQTSSKLFQNCSELFKTQTFSGDFMHRLPLLGEKQEAKENGTNLTFIGDKTAMHEPLQTWQDAPYIFIVHIGISSSKESSKENSLSNLFTMTVEVKGPYEYLTLEDYPLMIFFMVMCIVYVLFGVLWLAWSACYWRDLLRIQFWIGAVIFLGMLEKAVFYAEFQNIRYKGESVQGALILAELLSAVKRSLARTLVIIVSLGYGIVKPRLGVTLHKVVVAGALYLLFSGMEGVLRVTGAQTDLASLAFIPLAFLDTALCWWIFISLTQTMKLLKLRRNIVKLSLYRHFTNTLILAVAASIVFIIWTTMKFRIVTCQSDWRELWVDDAIWRLLFSMILFVIMVLWRPSANNQRFAFSPLSEEEEEDEQKEPMLKESFEGMKMRSTKQEPNGNSKVNKAQEDDLKWVEENVPSSVTDVALPALLDSDEERMITHFERSKME [TMEM87A] | -0.0314 | 59 | 60.5 | -0.117 | -4.37 | -3.56
MAAAEEEPKPKKLKVEAPQALRENILFGMGNPLLDISAVVDKDFLDKYSLKPNDQILAEDKHKELFDELVKKFKVEYHAGGSTQNSIKVAQWMIQQPHKAATFFGCIGIDKFGEILKRKAAEAHVDAHYYEQNEQPTGTCAACITGDNRSLIANLAAANCYKKEKHLDLEKNWMLVEKARVCYIAGFFLTVSPESVLKVAHHASENNRIFTLNLSAPFISQFYKESLMKVMPYVDILFGNETEAATFAREQGFETKDIKEIAKKTQALPKMNSKRQRIVIFTQGRDDTIMATESEVTAFAVLDQDQKEIIDTNGAGDAFVGGFLSQLVSDKPLTECIRAGHYAASIIIRRTGCTFPEKPDFH [ADK] | 0.242 | 56.3 | 56.9 | -0.112 | 1.79 | 2.86
